From US20040110287A1, “Multi-step method for the differentiation of insulin positive, glucose responsive cells” (ES Cell International Pte Ltd., priority 2002, published 2004)

Tested on: pdx1+ cells
Assay: Expansion of pdx1+ cells in non-adherent clusters of human pancreatic duct cells
Assay type: cell-based
Protocol: Pancreatic duct cells were isolated from human donor tissue, using the methods described in detail in Example 2. The cells were plated as non-adherent cell clusters in DMEM-F12 (pH 7.4), 2 mM glutamine, 1% penicillin-streptomycin, 2% B27 (Life Sciences Technologies) and 8 mM HEPES. Following 1-4 days in culture, the media was changed to DMEM-F12 (pH 6.9-7.1), 2 mM glutamine, 1% penicillin-streptomycin, and 2% B27 (Life Sciences Technologies). This media was supplemented with the following four factors: dexamethasone (10^−7-10^−9 M), forskolin (10 μM), insulin (20 μg/ml) and FGF-18 (20 ng/ml). The media was optionally supplemented with heparin which is often used to enhance the effects of FGF. The cells were cultured for a number of days in this supplemented media which was changed daily.
Following approximately one day in culture, Pdx1+ cells (a marker of pancreatic progenitor cells) began appearing on the surface of the non-adherent clusters. The size and number of Pdx1+ cells continues to increase for approximately 12 days. Following 8 to 12 days in culture under expansion conditions, non-adherent cell clusters containing an increased number of Pdx1+ cells were subjected to a differentiation protocol to produce insulin+, glucose responsive cell clusters.
This effect on pdx1 expression was further augmented if the follistatin-related factor follistatin or a combination of follistatin and the GLP-1 agonist exendin-4 was added to the above list of factors used to supplement the acidic culture medium. Briefly, cultures expanded in forskolin (a cAMP elevating agent), dexamethasone (a corticosteroid), insulin, FGF18 (a FGF family member), heparin (known to potentiate the activity of FGF family members), and follistatin (a follistatin-related factor) contained approximately 281 fold more pdx1+ cells than cells differentiated in the absence of the expansion protocol. […]

B1: follistatin (protein, UniProt P19883 30-344, looked up)
Follistatin: GNCWLRQAKNGRCQVLYKTELSKEECCSTGRLSTSWTEEDVNDNTLFKWMIFNGGAPNCIPCKETCENVDCGPGKKCRMNKKNKPRCVCAPDCSNITWKGPVCGLDGKTYRNECALLKARCKEQPELEVQYQGRCKKTCRDVFCPGSSTCVVDQTNNAYCVTCNRICPEPASSEQYLCGNDGVTYSSACHLRKATCLLGRSIGLAYEGKCIKAKSCEDIQCTGGKKCLWDFKVGRGRCSLCDELCPDSKSDEPVCASDNATYASECAMKEAACSSGVLLEVKHSGSCNSISEDTEEEEEDEDQDYSFPISSILEW
fold more pdx1+ cells than cells differentiated in the absence of the expansion protocol (4 days basal medium, 4 days acidic expansion medium, before differentiation): approximately 281 fold | fold increase in total islet equivalents (IEs) versus multistep differentiation protocol alone (FIG. 5): 281 fold | pdx1 expression versus expansion medium alone (FIG. 6 and FIG. 7, added to expansion medium): increase in pdx1 expression
